Reference: US20220041711A1 (NGM BIOPHARMACEUTICALS, published 2022)
Read-outs that look alike come from different tables or passages of the source.

B4: human LAIR-1-Fc (Fc fusion)
chain: QEEDLPRPSISAEPGTVIPLGSHVTFVCRGPVGVQTFRLERESRSTYNDTEDVSQASPSESEARFRIDSVSEGNAGPYRCIYYKPPKWSEQSDYLELLVKETSGGPDSPDTEPGSSAGPTQRPSDNSHNEHAPASQGLKAEHLY
notes: also called biotinylated human LAIR-1-Fc; not shown: a Fc region

What was measured:
human LAIR-1-Fc = target: B4; test: ELISA blocking: plate coated with 5 µg/mL human collagen type 1, antibody titrated, 1 µg/mL biotinylated human LAIR-1-Fc, streptavidin-HRP, OD650
[1] = target: T1, human LAIR-1-CD3ζ chimeric receptor on NFAT-GFP reporter cells (human, UniProt P20963 31-164, limits assumed); test: cell-based or functional assay
cyno LAIR-1-ECD = target: T2, cyno LAIR-1-ECD (cynomolgus monkey); test: SPR (Biacore) as in Example 2
T2 construct: Recombinant, expressed in mammalian cells; also called extracellular region of cyno LAIR-1
T2 chain: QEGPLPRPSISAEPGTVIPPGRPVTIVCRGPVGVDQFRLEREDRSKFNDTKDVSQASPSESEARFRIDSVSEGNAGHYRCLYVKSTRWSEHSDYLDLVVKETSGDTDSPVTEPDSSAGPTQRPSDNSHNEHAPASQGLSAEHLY

human LAIR-1-ECD = target: T3, human LAIR-1-ECD (human, UniProt Q6GTX8 22-165); test: SPR (Biacore) as in Example 2
T3 construct: Recombinant, expressed in mammalian cells; also called extracellular region of human LAIR-1
T3 chain: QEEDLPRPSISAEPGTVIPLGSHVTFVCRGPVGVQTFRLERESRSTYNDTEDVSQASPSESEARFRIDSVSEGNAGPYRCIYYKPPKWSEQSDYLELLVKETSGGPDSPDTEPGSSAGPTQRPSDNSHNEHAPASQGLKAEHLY

[2] = target: T1, human LAIR-1-CD3ζ chimeric receptor on …; test: cell-based or functional assay; remark: listed apart in the source
[3] = target: T4, cyno LAIR-1-CD3ζ chimeric receptor on NFAT-GFP reporter cells (cynomolgus monkey; human); test: cell-based or functional assay
[4] = target: T1, human LAIR-1-CD3ζ chimeric receptor on …; test: cell-based or functional assay; remark: listed apart in the source
[5] = target: T4, cyno LAIR-1-CD3ζ chimeric receptor on …; test: cell-based or functional assay; remark: listed apart in the source
[6] = target: T1, human LAIR-1-CD3ζ chimeric receptor on …; test: cell-based or functional assay; remark: listed apart in the source
[7] = target: T4, cyno LAIR-1-CD3ζ chimeric receptor on …; test: cell-based or functional assay; remark: listed apart in the source
[8] = target: T5, human MARCO expressed on cells (721.221-MARCO, 293T-MARCO) (human, UniProt Q9UEW3 1-520); test: flow cytometry, Fc protein at 10 µg/mL on 721.221 cells expressing MARCO, PE anti-Fc secondary
T5 construct: also called 721.221 cells expressing MARCO
T5 sequence: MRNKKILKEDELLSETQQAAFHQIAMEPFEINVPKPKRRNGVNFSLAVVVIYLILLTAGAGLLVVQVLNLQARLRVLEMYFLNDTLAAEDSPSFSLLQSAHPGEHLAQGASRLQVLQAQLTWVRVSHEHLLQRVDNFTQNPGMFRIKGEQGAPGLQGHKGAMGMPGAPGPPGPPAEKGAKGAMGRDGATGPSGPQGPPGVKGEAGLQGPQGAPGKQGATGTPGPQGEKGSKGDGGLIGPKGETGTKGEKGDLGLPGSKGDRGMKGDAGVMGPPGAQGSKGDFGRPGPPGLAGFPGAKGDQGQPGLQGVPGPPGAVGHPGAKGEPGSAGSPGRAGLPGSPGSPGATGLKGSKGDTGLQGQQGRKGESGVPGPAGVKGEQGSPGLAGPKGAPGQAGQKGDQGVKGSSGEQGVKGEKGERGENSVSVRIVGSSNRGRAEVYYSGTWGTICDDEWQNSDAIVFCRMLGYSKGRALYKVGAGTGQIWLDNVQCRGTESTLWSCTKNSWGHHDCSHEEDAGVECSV

[9] = target: T6, mouse LAIR-1 (form in the assay not stated) (mouse, UniProt Q8BG84 22-144, limits assumed); test: not described
T6 sequence: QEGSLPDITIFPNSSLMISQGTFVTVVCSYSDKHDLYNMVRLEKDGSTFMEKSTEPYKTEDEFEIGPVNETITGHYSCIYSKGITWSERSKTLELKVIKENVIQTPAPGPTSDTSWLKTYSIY

[10] = target: T7, human LAIR-1b (alternative isoform of human LAIR-1) on transfected 293T cells (human, UniProt Q6GTX8 22-287); test: flow cytometry on cells expressing human LAIR-1b, PE anti-human Fc secondary, MFI (panel Human LAIR1 (Truncated) Cells)
T7 chain: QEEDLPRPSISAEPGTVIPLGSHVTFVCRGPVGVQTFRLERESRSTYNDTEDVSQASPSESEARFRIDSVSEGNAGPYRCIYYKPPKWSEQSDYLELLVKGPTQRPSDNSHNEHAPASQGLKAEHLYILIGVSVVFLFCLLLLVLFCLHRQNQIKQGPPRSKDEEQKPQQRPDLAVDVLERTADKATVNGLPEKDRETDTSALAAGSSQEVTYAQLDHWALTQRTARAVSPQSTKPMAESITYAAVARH

[11] = target: T4, cyno LAIR-1-CD3ζ chimeric receptor on …; test: flow cytometry on cyno LAIR-1 reporter cells, PE anti-human Fc secondary, MFI (panel Cynomolgus Monkey LAIR1 Cells)
[12] = target: T1, human LAIR-1-CD3ζ chimeric receptor on …; test: cell-based or functional assay; remark: listed apart in the source
[13] = target: T1, human LAIR-1-CD3ζ chimeric receptor on …; test: flow cytometry on human LAIR-1 reporter cells, PE anti-human Fc secondary, MFI (panel Human LAIR1 Cells)

B1: anti-LAIR-1 antibody ch62G10 (antibody, V domains shown)
VH: EVQLVETGGGLVQPKGSLKLSCATSGFTFNINAMNWVRQAPGKGLEWVARIRTKNNNFATYYADSVKDRFTISRDDSQSMLYLQMNNLKTEDTAMYYCVRGPYFDYWGQGTTLTVSS
VL: DIQMTQSPASQSASLGESVTITCLASQTIGTWLAWYQQKPGKSPQLLIYAATSLADGVPSRFSGSGSGTKFSFKISNLQAEDFVTYYCQQLYSTPYTFGGGTKLEIK
notes: The prefix 'ch' is not defined
Human LAIR-1-Fc
  IC50 (read off the curve): ~3 nM
[1]
  IC50 (read off the curve): % GFP+ human LAIR-1 reporter cells on coated MARCO-his: ~0.07 nM
  IC50 (read off the curve): % GFP+ human LAIR-1 reporter cells on coated collagen 1: ~0.1 nM
  IC50 (read off the curve): % GFP+ human LAIR-1 reporter cells on coated collagen 4: ~0.1 nM
Cyno LAIR-1-ECD
  Kd: 16 nM
  koff: 0.0043 s⁻¹
  kon: 280000 M⁻¹ s⁻¹
Human LAIR-1-ECD
  Kd: 0.9 nM
  koff: 0.00069 s⁻¹
  kon: 770000 M⁻¹ s⁻¹
[2]
  IC50 (read off the curve): % GFP+ human LAIR-1 reporter cells on coated MARCO-his: ~0.06 nM
  IC50 (read off the curve): % GFP+ human LAIR-1 reporter cells on coated collagen 1: ~0.04 nM
  IC50 (read off the curve): % GFP+ human LAIR-1 reporter cells on coated collagen 4: ~0.03 nM
[3]
  IC50 (read off the curve): % GFP+ cyno LAIR-1 reporter cells on coated MARCO-his: ~0.2 nM
  IC50 (read off the curve): % GFP+ cyno LAIR-1 reporter cells on coated collagen 1: ~0.4 nM
  IC50 (read off the curve): % GFP+ cyno LAIR-1 reporter cells on coated collagen 4: ~0.2 nM
[4]
  IC50 (read off the curve): % GFP+ human LAIR-1 reporter cells co-cultured with bEnd.3 cells: ~0.04 nM
[5]
  IC50 (read off the curve): % GFP+ cyno LAIR-1 reporter cells co-cultured with bEnd.3 cells: ~0.2 nM
[6]
  IC50 (read off the curve): % GFP+ human LAIR-1 reporter cells on polymerized collagen matrix: ~0.03 nM
[7]
  IC50 (read off the curve): % GFP+ cyno LAIR-1 reporter cells on polymerized collagen matrix: ~0.2 nM

B2: LAIR-2-Fc (Fc fusion)
chain: QEGALPRPSISAEPGTVISPGSHVTFMCRGPVGVQTFRLEREDRAKYKDSYNVFRLGPSESEARFHIDSVSEGNAGLYRCLYYKPPGWSEHSDFLELLVKESSGGPDSPDTEPGSSAGTVPGTEASGFDAP
notes: LAIR-2 soluble protein fused to a Fc region; also called human LAIR-2-Fc; not shown: a Fc region
[8]
  binding result: binds

B3: humanized anti-LAIR-1 antibody Hz47H1.v4 (antibody, human IgG1, kappa, N297G, V domains shown)
VH: EVQLVESGGGLVQPGGSLRLSCAASGFTFNINAMNWVRQAPGKGLEWVARIRTKNYNYATFYADSVKDRFTISRDDSKNSLYLQMNSLKTEDTAVYYCVRDRAGFFAYWGQGTTVTVSS
VL: DIQMTQSPSSLSASVGDRVTITCLASQTIGTWLGWYQQKPGKAPKLLIYAATSLAEGVPSRFSGSGSGTDFTLTISSLQPEDFATYYCQQLYSTPLTFGGGTKVEIKR
notes: Humanized 47H1 with reengineered VH CDR2 and VL CDR2
[9]
  binding result: no binding
Human LAIR-1-Fc
  IC50 (read off the curve): ~3 nM
[10]
  EC50 (read off the curve): ~2 nM
[11]
  EC50 (read off the curve): ~1 nM
[12]
  IC50 (M), reporter cell assay, ligand COLEC12: 1.2e-11 M
  IC50 (M), reporter cell assay, ligand Collagen 1: 3.2e-11 M
  IC50 (M), reporter cell assay, ligand Collagen 4: 3.2e-11 M
  IC50 (M), reporter cell assay, ligand MARCO: 3.2e-11 M
  IC50 (M), reporter cell assay, ligand MBL: 4.2e-11 M
  IC50 (M), reporter cell assay, ligand Polymerized Collagen Matrix: 3e-11 M
  IC50 (M), reporter cell assay, ligand SPD: 2e-11 M
  IC50 (M), reporter cell assay, ligand Tumor Cell Collagens: 1.6e-11 M
Cyno LAIR-1-ECD
  Kd: 4.3 nM
  koff: 0.0016 s⁻¹
  kon: 390000 M⁻¹ s⁻¹
Human LAIR-1-ECD
  Kd: 0.26 nM
  koff: 0.0006 s⁻¹
  kon: 2.3e+06 M⁻¹ s⁻¹
[2]
  IC50 (read off the curve): % GFP+ human LAIR-1 reporter cells on coated MARCO-his: ~0.02 nM
  IC50 (read off the curve): % GFP+ human LAIR-1 reporter cells on coated collagen 1: ~0.02 nM
  IC50 (read off the curve): % GFP+ human LAIR-1 reporter cells on coated collagen 4: ~0.02 nM
[3]
  IC50 (read off the curve): % GFP+ cyno LAIR-1 reporter cells on coated MARCO-his: ~0.06 nM
  IC50 (read off the curve): % GFP+ cyno LAIR-1 reporter cells on coated collagen 1: ~0.1 nM
  IC50 (read off the curve): % GFP+ cyno LAIR-1 reporter cells on coated collagen 4: ~0.08 nM
[13]
  EC50 (read off the curve): ~0.2 nM
[5]
  IC50 (read off the curve): % GFP+ cyno LAIR-1 reporter cells co-cultured with bEnd.3 cells: ~0.1 nM
[7]
  IC50 (read off the curve): % GFP+ cyno LAIR-1 reporter cells on polymerized collagen matrix: ~0.09 nM

## B4
[8]
  binding result: binds
